Consider five molecules from US12365732.

Assay [1] concerns the target human CD96 on primary human immune cells (PBMCs, NK cells, CD4+ T cells) (human) (UniProt P40200). Description: FACS, Ab 16 nM.
The target is the same in assay [2]. Description: FACS, Ab 80 nM.
The target is the same in assay [3]. Description: FACS, Ab 3.2 nM. (Flow cytometry measures light scatter and fluorescence of single cells or particles in a stream.)
The target is the same in assay [4]. The assay is described as follows: FACS, Ab 0.64 nM.
For assay [5] the target is unchanged. The assay is described as follows: FACS, Ab 0.128 nM.
For assay [6] the target is unchanged. Description: FACS, Ab 0.0256 nM.
For assay [7] the target is unchanged. The assay is described as follows: FACS, Ab 0.00512 nM.
Assay [8] has the same target. The assay is described as follows: FACS, % positive curve.
Assay [9] shares this target. Description: cell-based or functional assay.

B1: h10G1 IgG (humanized 10G1) (antibody, V domains shown)
VH: EIQLVQSGSELKKPGASVKVSCKASGYPFTTYGMSWVRQAPGQGLEWMGWINTDSGVPTYADDFKGRFVFSLDTSVSTAYLQISSLKAEDTAVYFCARNIYYGWGNFDYWGQGTLVTVSS
VL: EIVMTQSPDFQSVTPKEKVTITCRASQDIYRNLHWYQQKPDQTPKLLIKHASDSISGIPSRFSGSGSGTDFTLTINSLEAEDAAAYYCLQGYSMPYTFGGGTKVEIKG
Broadly, the EC50 is the concentration at which the effect is half-maximal. Lower therefore signals a more potent agent. Regarding B1, in assay [1], the % positive came out at 81.4%. In [2], the % positive turned out to be 88.7%. In addition, the % positive in [3] is 64.4%. The % positive in assay [4] came out at 53.5%. In addition, the % positive in assay [5] was 39.1%. Also, the % positive in assay [6] turned out to be 14.6%. The molecule also gave a % positive in assay [7] of 5.4%. Further, the EC50 in assay [8] turned out to be 0.28 nM. For the same molecule, in [9], the Human NK cell IFNγ secretion (fold over background), Ab 0.0032 nM stood at 1 fold; the Human NK cell IFNγ secretion (fold over background), Ab 0.016 nM was 1.13 fold; the Human NK cell IFNγ secretion (fold over background), Ab 0.08 nM came to 1.38 fold; the Human NK cell IFNγ secretion (fold over background), Ab 0.4 nM amounted to 1.96 fold. In [9], this molecule yielded a Human NK cell IFNγ secretion (fold over background), Ab 2 nM of 2.08 fold; a Human NK cell IFNγ secretion (fold over background), Ab 10 nM of 2.19 fold; a Human NK cell IFNγ secretion (fold over background), Ab 50 nM of 2.21 fold; a Human NK cell IFNγ secretion (fold over background), Ab 250 nM of 1.87 fold. In [9], this molecule had a Human NK cell IFNγ secretion, EC50 of 0.112 nM.

B2: mAb1.v7.NGS10 IgG (antibody, V domains shown)
VH: EVQLVQSGAEVKKPGASVKVSCKASGFTFTNNFMHWVRQAPGQGLEWIGFIHANSGITNINEKFKNRVTMTTDTSTSTAYMELRSLRSEDTAVYYCRSDGIYEGYFDYWGQGTLVTVSS
VL: DIQLTQSPSSLSASVGDRVTITCKASQNVGTAIVWYQQKPGKAPKVLIYSASTRYTGVPSRFSGSGSGTDFTLTISSLQPEDFATYYCQQYSSSPLTFGQGTKVEIKG
The molecule B2 returned a % positive in assay [1] of 97.1%. The % positive in assay [2] came to 97.7%. In assay [3], this molecule displayed a % positive of 93.8%. The same molecule gave a % positive in assay [4] of 88.8%. This molecule also showed a % positive in assay [5] of 66.7%. Besides, the % positive in assay [6] amounted to 16.9%. In [7], this molecule gave a % positive of 6.1%. In assay [8], the EC50 amounted to 0.069 nM. Also, in assay [9], the Human NK cell IFNγ secretion (fold over background), Ab 0.0032 nM was found to be 1 fold; the Human NK cell IFNγ secretion (fold over background), Ab 0.016 nM was 1.24 fold; the Human NK cell IFNγ secretion (fold over background), Ab 0.08 nM came to 1.36 fold; the Human NK cell IFNγ secretion (fold over background), Ab 0.4 nM worked out at 1.81 fold. In [9], this molecule gave a Human NK cell IFNγ secretion (fold over background), Ab 2 nM of 2.12 fold; a Human NK cell IFNγ secretion (fold over background), Ab 10 nM of 1.94 fold; a Human NK cell IFNγ secretion (fold over background), Ab 50 nM of 2.05 fold; a Human NK cell IFNγ secretion (fold over background), Ab 250 nM of 1.87 fold. Further, the Human NK cell IFNγ secretion, EC50 in assay [9] was 0.084 nM.

B3: mAb1.v7.NGS9 IgG (antibody, V domains shown)
VH: EVQLVQSGAEVKKPGASVKVSCKASGFTFTNNFMHWVRQAPGQGLEWIGMIHANSGITNINEKFKNRVTMTTDTSTSTAYMELRSLRSEDTAVYYCRSDGVYEGYFDYWGQGTLVTVSS
VL: DIQLTQSPSSLSASVGDRVTITCKASQNVGTAIVWYQQKPGKAPKVLIYSASTRYTGVPSRFSGSGSGTDFTLTISSLQPEDFATYYCQQYSSSPLTFGQGTKVEIKG
In the case of B3, the % positive is 97.1% in assay [1]; 97.8% in assay [2]; 95.1% in [3]; 90.8% in assay [4]; 64.7% in assay [5]; 22.5% in [6]. The molecule further showed a % positive in assay [7] of 8.2%. The molecule also showed an EC50 in assay [8] of 0.071 nM.

B4: mAb1.v7.NGS8 IgG (antibody, V domains shown)
VH: EVQLVQSGAEVKKPGASVKVSCKASGFTFTNNFMHWVRQAPGQGLEWIGMIHANSGITNINEKFKNRVTMTTDTSTSTAYMELRSLRSEDTAVYYCRSDGIYEGYFDYWGQGTLVTVSS
VL: DIQLTQSPSSLSASVGDRVTITCKASQNVGTAIVWYQQKPGKAPKVLIYSASTRYTGVPSRFSGSGSGTDFTLTISSLQPEDFATYYCQQYSSSPLTFGQGTKVEIKG
In the case of B4, the % positive is 96.2% in assay [1]; 97.8% in assay [2]; 92.3% in [3]; 89.3% in assay [4]; 64.2% in assay [5]; 22% in [6]. For the same molecule, the % positive in [7] was found to be 8.6%. In addition, in [8], the EC50 was 0.072 nM.

B5: mAb1.v7.NGS11 IgG (antibody, V domains shown)
VH: EVQLVQSGAEVKKPGASVKVSCKASGFTFTNNFMHWVRQAPGQGLEWIGFIHANSGITNINEKFKNRVTMTTDTSTSTAYMELRSLRSEDTAVYYCRSDGVYEGYFDYWGQGTLVTVSS
VL: DIQLTQSPSSLSASVGDRVTITCKASQNVGTAIVWYQQKPGKAPKVLIYSASTRYTGVPSRFSGSGSGTDFTLTISSLQPEDFATYYCQQYSSSPLTFGQGTKVEIKG
As for B5, the % positive is 96.7% in assay [1]; 97.2% in assay [2]; 94.2% in assay [3]; 89.7% in assay [4]; 61.1% in assay [5]; 11.6% in assay [6]. In assay [7], this molecule came in with a % positive of 5.4%. For the same molecule, the EC50 in assay [8] stood at 0.083 nM.
